Where two headings read alike, the source gives them in different places. Positions of bridges follow the written chain, without caps; N, C: chain ends. Residues, ends and D or L forms follow the SMILES beside them. *: point of attachment. X1 = O=C(O)c1ccc(-c2c3nc(c(-c4ccc(C(=O)O)cc4)c4ccc([nH]4)c(-c4ccc(C(=O)*)cc4)c4nc(c(-c5ccc(C(=O)O)cc5)c5ccc2[nH]5)C=C4)C=C3)cc1; X2 = O=C(O)C/C(=C/C(=O)*)C(=O)O
Legend:
[1] = Morphology and size by TEM; format: physicochemical; conditions: PBS 0.01 M, pH 6.5, 1 h, 40 μM
Protocol: Nano-ZS 3600 (Malvern Instruments, UK) was used to measure the size distribution of the peptide-porphyrin conjugate solutions. The conjugate solutions (40 μM) were incubated at pH 7.4 or pH 6.5 before measurements. An average value was determined by three repeated measurements at 25 °C for each sample. Besides, transmission electron microscopy (TEM, Tecnai G2 20 S-TWIN) was conducted to observe the morphology and diameters of conjugates in aqueous solution, The conjugates (50 μL, 40 μM) were kept in PB solution at pH 7.4 or pH 6.5, which were dropped on copper meshes. After 5 min, unnecessary liquid was removed and the uranyl acetate solution (10 μL) was dropped on this copper mesh to stain the samples for 10 min. Finally, the copper meshes were washed with deionized water, and dried at room temperature for observation.

[2] = system: EJ tumor tissues; test: Tumor ROS content detection; format: in vivo, BALB/c nude mice; conditions: 8 mg/kg i.v., versus PBS, Gi-F and Gi-F-SA
Protocol: EJ tumor tissues were collected under euthanasia at the end of treatment and washed with PBS for 3 times. Next, DCFH-DA fluorescence staining was carried out by Wuhan Servicebio Technology Co., Ltd.

[3] = system: 786-O xenograft tumors; test: In vivo antitumor evaluation in large tumor model (786-O); parameters: species or system BALB/c nude mice; conditions: six i.v. injections at 2-days intervals, Gi-F-CAA 8 mg/kg, Bevacizumab 5 mg/kg
[4] = Protocol: The main organs (heart, liver, spleen, lung, kidney and intestine) of healthly BALB/c nude mice (~8 weeks old, 18 g) were collected under euthanasia after treatment with PBS and Gi-F-CAA (8, 12 and 16 mg/kg in 100 μL PBS) for 1 day. Afterwards, the histology evaluation by Hematoxylin and Eosin (H&E) Staining was carried out by Servicebio Technology Co., Ltd. (Wuhan, China). Meanwhile, the whole blood and serum of healthly BALB/c nude mice (~8 weeks old, 18 g) were collected after treatment with PBS and Gi-F-CAA (8, 12 and 16 mg/kg in 100 μL PBS) for 1 days. The blood biochemistry analysis was performed with Hitachi Automatic Biochemical Analyzer 7100. The blood routine analysis was carried out by Vital River Laboratory Animal Technology Co., Ltd. (Beijing, China).
[5] = healthy mice, i.v. 8, 12 and 16 mg/kg, 1 day post-injection

CC(C)C[C@H](NC(=O)c1ccc(-c2c3nc(c(-c4ccc(C(=O)O)cc4)c4ccc([nH]4)c(-c4ccc(C(=O)O)cc4)c4nc(c(-c5ccc(C(=O)O)cc5)c5ccc2[nH]5)C=C4)C=C3)cc1)C(=O)N[C@@H](CCCCNC(=O)/C=C(/CC(=O)O)C(=O)O)C(=O)N[C@@H](CC(C)C)C(=O)N[C@@H](CCCCN)C(=O)N[C@@H](CC(C)C)C(=O)N[C@@H](CCCCNC(=O)/C=C(/CC(=O)O)C(=O)O)C(=O)NCC(=O)N[C@@H](C)C(=O)N[C@H]1CSSC[C@@H](C(=O)N2CCC[C@H]2C(=O)N[C@H](C(=O)O)C(C)C)NC(=O)[C@@H]2CCCN2C(=O)[C@H](Cc2ccc(O)cc2)NC(=O)[C@H](CC(C)C)NC(=O)[C@@H]2CCCN2C(=O)[C@H](CC(C)C)NC(=O)[C@H](Cc2c[nH]c3ccccc23)NC(=O)[C@H](CC(N)=O)NC1=O [Gi-F-CAA] (X1-LK(X2)LKLK(X2)GACNWLPLYPCPV-OH; disulfide 9-17; C-terminus assumed)
particle size (TEM) [1]: 57 ± 9 nm | ROS levels of tumor tissues [2]: elevation | tumor volume course in large tumors (~500 mm^3) [3]: declining tendency for 10 days and maintained a long-termed tumor growth inhibition | ALP ([4]; 8 mg/kg, mice 1): 152 U/L | ALT ([4]; 8 mg/kg, mice 1): 62 U/L | AST ([4]; 8 mg/kg, mice 1): 183 U/L | BUN ([4]; 8 mg/kg, mice 1): 13.2 mmol/L | CREA ([4]; 8 mg/kg, mice 1): 30.8 µmol/L | HGB ([4]; 8 mg/kg, mice 1): 15.7 g/dL | NEUT ([4]; 8 mg/kg, mice 1): 0.4 109/L | PLT ([4]; 8 mg/kg, mice 1): 985 109/L | RBC ([4]; 8 mg/kg, mice 1): 10.6 1012/L | WBC ([4]; 8 mg/kg, mice 1): 1.8 109/L | ALP ([4]; 8 mg/kg, mice 2): 159 U/L | ALT ([4]; 8 mg/kg, mice 2): 60 U/L | AST ([4]; 8 mg/kg, mice 2): 184 U/L | BUN ([4]; 8 mg/kg, mice 2): 14.42 mmol/L | CREA ([4]; 8 mg/kg, mice 2): 28.8 µmol/L | HGB ([4]; 8 mg/kg, mice 2): 15.4 g/dL | NEUT ([4]; 8 mg/kg, mice 2): 0.3 109/L | PLT ([4]; 8 mg/kg, mice 2): 1198 109/L | RBC ([4]; 8 mg/kg, mice 2): 10.1 1012/L | WBC ([4]; 8 mg/kg, mice 2): 1.5 109/L | ALP ([4]; 8 mg/kg, mice 3): 145 U/L | ALT ([4]; 8 mg/kg, mice 3): 56 U/L | AST ([4]; 8 mg/kg, mice 3): 193 U/L | BUN ([4]; 8 mg/kg, mice 3): 13.94 mmol/L | CREA ([4]; 8 mg/kg, mice 3): 31.6 µmol/L | HGB ([4]; 8 mg/kg, mice 3): 15.9 g/dL | NEUT ([4]; 8 mg/kg, mice 3): 0.3 109/L | PLT ([4]; 8 mg/kg, mice 3): 1073 109/L | RBC ([4]; 8 mg/kg, mice 3): 9 1012/L | WBC ([4]; 8 mg/kg, mice 3): 1.7 109/L | ALP ([4]; 8 mg/kg, mice 4): 159 U/L | ALT ([4]; 8 mg/kg, mice 4): 63 U/L | AST ([4]; 8 mg/kg, mice 4): 180 U/L | BUN ([4]; 8 mg/kg, mice 4): 13.15 mmol/L | CREA ([4]; 8 mg/kg, mice 4): 31 µmol/L | HGB ([4]; 8 mg/kg, mice 4): 15.3 g/dL | NEUT ([4]; 8 mg/kg, mice 4): 0.4 109/L | PLT ([4]; 8 mg/kg, mice 4): 1117 109/L | RBC ([4]; 8 mg/kg, mice 4): 10 1012/L | WBC ([4]; 8 mg/kg, mice 4): 2 109/L | ALP ([4]; 12 mg/kg, mice 1): 150 U/L | ALT ([4]; 12 mg/kg, mice 1): 61 U/L | AST ([4]; 12 mg/kg, mice 1): 192 U/L | BUN ([4]; 12 mg/kg, mice 1): 13.27 mmol/L | CREA ([4]; 12 mg/kg, mice 1): 30 µmol/L | HGB ([4]; 12 mg/kg, mice 1): 15.2 g/dL | NEUT ([4]; 12 mg/kg, mice 1): 0.4 109/L | PLT ([4]; 12 mg/kg, mice 1): 991 109/L | RBC ([4]; 12 mg/kg, mice 1): 9 1012/L | WBC ([4]; 12 mg/kg, mice 1): 1.9 109/L | ALP ([4]; 12 mg/kg, mice 2): 145 U/L | ALT ([4]; 12 mg/kg, mice 2): 63 U/L | AST ([4]; 12 mg/kg, mice 2): 191 U/L | BUN ([4]; 12 mg/kg, mice 2): 13.11 mmol/L | CREA ([4]; 12 mg/kg, mice 2): 28.5 µmol/L | HGB ([4]; 12 mg/kg, mice 2): 15.4 g/dL | NEUT ([4]; 12 mg/kg, mice 2): 0.3 109/L | PLT ([4]; 12 mg/kg, mice 2): 1110 109/L | RBC ([4]; 12 mg/kg, mice 2): 9.3 1012/L | WBC ([4]; 12 mg/kg, mice 2): 1.6 109/L | ALP ([4]; 12 mg/kg, mice 3): 153 U/L | ALT ([4]; 12 mg/kg, mice 3): 60 U/L | AST ([4]; 12 mg/kg, mice 3): 190 U/L | BUN ([4]; 12 mg/kg, mice 3): 12.9 mmol/L | CREA ([4]; 12 mg/kg, mice 3): 30.6 µmol/L | HGB ([4]; 12 mg/kg, mice 3): 15.6 g/dL | NEUT ([4]; 12 mg/kg, mice 3): 0.3 109/L | PLT ([4]; 12 mg/kg, mice 3): 1144 109/L | RBC ([4]; 12 mg/kg, mice 3): 10 1012/L | WBC ([4]; 12 mg/kg, mice 3): 1.9 109/L | ALP ([4]; 12 mg/kg, mice 4): 146 U/L | ALT ([4]; 12 mg/kg, mice 4): 60 U/L | AST ([4]; 12 mg/kg, mice 4): 190 U/L | BUN ([4]; 12 mg/kg, mice 4): 13.29 mmol/L | CREA ([4]; 12 mg/kg, mice 4): 29.9 µmol/L | HGB ([4]; 12 mg/kg, mice 4): 16.4 g/dL | NEUT ([4]; 12 mg/kg, mice 4): 0.3 109/L | PLT ([4]; 12 mg/kg, mice 4): 1087 109/L | RBC ([4]; 12 mg/kg, mice 4): 10.1 1012/L | WBC ([4]; 12 mg/kg, mice 4): 2.1 109/L | ALP ([4]; 16 mg/kg, mice 1): 150 U/L | ALT ([4]; 16 mg/kg, mice 1): 57 U/L | AST ([4]; 16 mg/kg, mice 1): 182 U/L | BUN ([4]; 16 mg/kg, mice 1): 14.18 mmol/L | CREA ([4]; 16 mg/kg, mice 1): 31.7 µmol/L | HGB ([4]; 16 mg/kg, mice 1): 15.7 g/dL | NEUT ([4]; 16 mg/kg, mice 1): 0.4 109/L | PLT ([4]; 16 mg/kg, mice 1): 1194 109/L | RBC ([4]; 16 mg/kg, mice 1): 9.6 1012/L | WBC ([4]; 16 mg/kg, mice 1): 2 109/L | ALP ([4]; 16 mg/kg, mice 2): 145 U/L | ALT ([4]; 16 mg/kg, mice 2): 56 U/L | AST ([4]; 16 mg/kg, mice 2): 188 U/L | BUN ([4]; 16 mg/kg, mice 2): 13.21 mmol/L | CREA ([4]; 16 mg/kg, mice 2): 29.4 µmol/L | HGB ([4]; 16 mg/kg, mice 2): 15.3 g/dL | NEUT ([4]; 16 mg/kg, mice 2): 0.3 109/L | PLT ([4]; 16 mg/kg, mice 2): 984 109/L | RBC ([4]; 16 mg/kg, mice 2): 10.5 1012/L | WBC ([4]; 16 mg/kg, mice 2): 1.5 109/L | ALP ([4]; 16 mg/kg, mice 3): 148 U/L | ALT ([4]; 16 mg/kg, mice 3): 64 U/L | AST ([4]; 16 mg/kg, mice 3): 180 U/L | BUN ([4]; 16 mg/kg, mice 3): 12.87 mmol/L | CREA ([4]; 16 mg/kg, mice 3): 28.9 µmol/L | HGB ([4]; 16 mg/kg, mice 3): 15.1 g/dL | NEUT ([4]; 16 mg/kg, mice 3): 0.3 109/L | PLT ([4]; 16 mg/kg, mice 3): 1087 109/L | RBC ([4]; 16 mg/kg, mice 3): 10.6 1012/L | WBC ([4]; 16 mg/kg, mice 3): 1.9 109/L | ALP ([4]; 16 mg/kg, mice 4): 146 U/L | ALT ([4]; 16 mg/kg, mice 4): 59 U/L | AST ([4]; 16 mg/kg, mice 4): 193 U/L | BUN ([4]; 16 mg/kg, mice 4): 12.98 mmol/L | CREA ([4]; 16 mg/kg, mice 4): 32.5 µmol/L | HGB ([4]; 16 mg/kg, mice 4): 15 g/dL | NEUT ([4]; 16 mg/kg, mice 4): 0.4 109/L | PLT ([4]; 16 mg/kg, mice 4): 1072 109/L | RBC ([4]; 16 mg/kg, mice 4): 9.8 1012/L | WBC ([4]; 16 mg/kg, mice 4): 1.9 109/L | blood routine examination (WBC, RBC, PLT, LYMPH, NEUT) ([4]; healthy mice, i.v. 8, 12 and 16 mg/kg, 1 day): comparable with that of PBS group | hepatic and renal function markers (ALT, AST, ALP, BUN, CRE) [4, 5]: normal ranges of values | histopathology (H&E) of major organs [4, 5]: no remarkable histopathological damages

Reference: article PMC10784468 (Nature Communications, 2024)
